Source: patent EP1947117A2

How the values were obtained:
[1] = target: human TSH receptor on CHO cells (CHO-hTSHR clone JP09) (human) (UniProt P16473); assay: cell-based or functional assay
[2] = target: porcine TSH receptor (solubilized porcine thyroid membranes) (porcine) (UniProt Q8SPP9); assay: competitive binding assay to porcine thyroid membranes
[3] = target: porcine TSH receptor (solubilized porcine thyroid membranes) (porcine) (UniProt Q8SPP9); assay: competitive displacement of 125I-bTSH from solubilized porcine thyroid membranes
[4] = target: hCG receptor on MA-10 cells (transformed murine Leydig cells) (murine) (UniProt P30730); assay: cell-based or functional assay
[5] = target: rat TSH receptor on FRTL-5 cells (rat) (UniProt P21463); assay: cell-based or functional assay
[6] = target: hCG receptor on MA-10 cells (transformed murine Leydig cells) (murine) (UniProt P30730); assay: 125I-hCG receptor binding assay on MA-10 cells (Fig. 3b)

Chain of rat TSH receptor on FRTL-5 cells (rat) (P21463 22-764): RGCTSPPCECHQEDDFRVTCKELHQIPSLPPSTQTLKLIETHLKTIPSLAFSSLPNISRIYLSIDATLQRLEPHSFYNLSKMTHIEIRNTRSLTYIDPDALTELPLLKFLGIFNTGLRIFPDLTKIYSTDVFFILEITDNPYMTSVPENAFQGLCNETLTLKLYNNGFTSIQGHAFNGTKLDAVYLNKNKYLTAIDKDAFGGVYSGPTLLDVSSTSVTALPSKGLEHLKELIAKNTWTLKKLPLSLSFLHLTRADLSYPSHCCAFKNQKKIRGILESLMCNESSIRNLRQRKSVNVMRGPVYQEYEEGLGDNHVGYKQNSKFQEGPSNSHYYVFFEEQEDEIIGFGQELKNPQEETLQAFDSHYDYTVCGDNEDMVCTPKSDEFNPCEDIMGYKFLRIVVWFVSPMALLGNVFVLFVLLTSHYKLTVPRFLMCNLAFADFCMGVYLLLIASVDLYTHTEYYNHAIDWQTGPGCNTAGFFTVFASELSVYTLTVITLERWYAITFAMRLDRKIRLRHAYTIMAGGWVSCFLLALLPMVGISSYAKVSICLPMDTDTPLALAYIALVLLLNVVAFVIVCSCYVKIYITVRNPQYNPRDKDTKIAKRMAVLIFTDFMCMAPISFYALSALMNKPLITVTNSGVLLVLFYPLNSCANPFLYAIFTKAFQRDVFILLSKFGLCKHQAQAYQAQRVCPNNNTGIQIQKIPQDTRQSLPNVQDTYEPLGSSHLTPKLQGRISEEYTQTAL
Chain of hCG receptor on MA-10 cells (transformed murine Leydig cells) (murine) (P30730 27-700): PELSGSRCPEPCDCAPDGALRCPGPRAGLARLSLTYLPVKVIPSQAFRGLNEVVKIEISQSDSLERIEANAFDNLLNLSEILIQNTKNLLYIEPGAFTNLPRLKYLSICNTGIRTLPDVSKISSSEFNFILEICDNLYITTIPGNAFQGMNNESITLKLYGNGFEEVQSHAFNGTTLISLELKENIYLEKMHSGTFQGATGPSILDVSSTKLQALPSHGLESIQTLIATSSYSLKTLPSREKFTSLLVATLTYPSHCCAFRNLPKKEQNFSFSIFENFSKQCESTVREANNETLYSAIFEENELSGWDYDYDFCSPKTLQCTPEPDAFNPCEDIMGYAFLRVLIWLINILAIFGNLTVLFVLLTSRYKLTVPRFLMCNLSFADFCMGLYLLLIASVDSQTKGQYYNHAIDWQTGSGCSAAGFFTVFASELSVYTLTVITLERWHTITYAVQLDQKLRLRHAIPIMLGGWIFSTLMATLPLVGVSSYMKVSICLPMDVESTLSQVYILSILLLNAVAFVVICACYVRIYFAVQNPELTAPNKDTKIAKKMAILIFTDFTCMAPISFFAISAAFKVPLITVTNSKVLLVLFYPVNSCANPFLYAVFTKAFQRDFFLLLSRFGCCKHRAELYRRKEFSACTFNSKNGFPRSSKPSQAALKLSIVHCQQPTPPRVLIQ
Chain of porcine TSH receptor (solubilized porcine thyroid membranes) (porcine) (Q8SPP9 22-764): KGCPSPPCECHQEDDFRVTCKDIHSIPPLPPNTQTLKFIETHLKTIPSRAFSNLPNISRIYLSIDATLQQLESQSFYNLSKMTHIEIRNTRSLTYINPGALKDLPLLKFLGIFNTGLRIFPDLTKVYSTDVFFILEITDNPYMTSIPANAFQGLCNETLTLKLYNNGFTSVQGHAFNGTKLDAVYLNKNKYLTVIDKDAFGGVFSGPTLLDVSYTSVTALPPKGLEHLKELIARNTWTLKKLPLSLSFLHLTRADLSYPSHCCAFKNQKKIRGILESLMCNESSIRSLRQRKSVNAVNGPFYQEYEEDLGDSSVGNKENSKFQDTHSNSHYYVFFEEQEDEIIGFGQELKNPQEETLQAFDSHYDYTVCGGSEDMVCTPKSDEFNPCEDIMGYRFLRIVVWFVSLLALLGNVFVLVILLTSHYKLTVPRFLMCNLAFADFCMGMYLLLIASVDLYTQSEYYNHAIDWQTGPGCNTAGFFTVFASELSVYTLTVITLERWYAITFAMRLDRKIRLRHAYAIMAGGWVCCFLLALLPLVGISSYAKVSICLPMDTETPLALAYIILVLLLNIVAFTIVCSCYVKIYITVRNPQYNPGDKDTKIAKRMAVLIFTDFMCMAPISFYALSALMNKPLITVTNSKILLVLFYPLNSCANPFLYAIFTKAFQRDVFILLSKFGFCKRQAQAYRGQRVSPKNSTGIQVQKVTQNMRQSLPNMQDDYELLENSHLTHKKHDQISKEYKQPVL

Row | cAMP stimulation in JP09 cells, EC50 [1] [ng/mL] | cAMP stimulation in JP09 cells, relative potency (WT=1) [1] | EC25 of inhibition of 125I-bTSH binding [3] [ng/mL] | Progesterone synthesis in MA 10 cells, EC50 [4] [ng/mL] | Progesterone synthesis in MA 10 cells, Max [4] [%] | Substance | other results
1 | 1.05 | 6.4 fold (WT=1) | 189 | – | – | hTSH mutant α-P16K / WT-hTSHβ (from UniProt P01215 25-116; P01222 21-132) (ligand) | fold greater affinity than WT [2]: 5 fold
2 | – | – | – | 1.58 | 216 | hCG mutant α-Q13K+P16K+Q20K / WT-hCGβ (from UniProt P01215 25-116; P0DN86 21-165) (ligand) | –
3 | 2.75 | 2.4 fold (WT=1) | – | – | – | hTSH mutant WT α / TSHβ-L69R (from UniProt P01215 25-116; P01222 21-132) (ligand) | –
4 | – | – | – | 2.96 | 134 | hCG mutant α-Q20K / WT-hCGβ (from UniProt P01215 25-116; P0DN86 21-165) (ligand) | –
5 | – | – | – | – | – | hTSH mutant WT α / hTSHβ-I58R (from UniProt P01215 25-116; P01222 21-132) (ligand) | potency, fold increase over hTSH [5]: 2 to 4 fold; potency, fold increase over hTSH [1]: 2 to 4 fold
6 | 5.54 | 1.2 fold (WT=1) | 77.5 | – | – | hTSH mutant α-Q50P / WT-hTSHβ (from UniProt P01215 25-116; P01222 21-132) (ligand) | –
7 | 0.28 | 23.9 fold (WT=1) | 2.3 | – | – | hTSH mutant α-Q13K+P16K+Q20K / WT-hTSHβ (from UniProt P01215 25-116; P01222 21-132) (ligand) | half-maximal stimulation of 3H-thymidine incorporation in FRTL-5 cells, fold lower concentration than WT-hTSH [5]: 18 fold
8 | 7.36 | 0.9 fold (WT=1) | 62.5 | – | – | hTSH mutant α-R67K / WT-hTSHβ (from UniProt P01215 25-116; P01222 21-132) (ligand) | –
9 | – | – | – | – | – | hTSH mutant WT α / hTSHβ-I58R+E63R+L69R (from UniProt P01215 25-116; P01222 21-132) (ligand) | efficacy of cAMP stimulation in CHO-hTSH cells (Fig. 2g), fold increase [1]: 1.7 fold; potency of cAMP stimulation in CHO-hTSH cells (Fig. 2g), fold increase [1]: 50 fold
10 | 1.89 | 3.5 fold (WT=1) | 22.5 | – | – | hTSH mutant α-Q13K / WT-hTSHβ (from UniProt P01215 25-116; P01222 21-132) (ligand) | –
11 | 1.16 | 5.8 fold (WT=1) | 21.3 | – | – | hTSH mutant α-Q20K / WT-hTSHβ (from UniProt P01215 25-116; P01222 21-132) (ligand) | –
12 | 4.47 | 1.5 fold (WT=1) | 68.3 | – | – | hTSH mutant α-T11K / WT-hTSHβ (from UniProt P01215 25-116; P01222 21-132) (ligand) | –
13 | – | – | – | 3.9 | 137 | hCG mutant α-Q50P / WT-hCGβ (from UniProt P01215 25-116; P0DN86 21-165) (ligand) | –
14 | – | – | – | 1.7 | 212 | hCG mutant α-P16K+Q20K / WT-hCGβ (from UniProt P01215 25-116; P0DN86 21-165) (ligand) | –
15 | 0.17 | 39.4 fold (WT=1) | 2.1 | – | – | hTSH mutant α-Q13K+P16K+Q20K+E14K / WT-hTSHβ (from UniProt P01215 25-116; P01222 21-132) (ligand) | efficacy (maximal response) of cAMP stimulation, fold over WT-hTSH [1]: > 1.5 fold
16 | – | – | – | – | – | hTSH mutant WT α / hTSHβ-E63R (from UniProt P01215 25-116; P01222 21-132) (ligand) | potency, fold increase over hTSH [5]: 2 to 4 fold; potency, fold increase over hTSH [1]: 2 to 4 fold
17 | – | – | – | 2.46 | 115 | hCG mutant α-Q13K / WT-hCGβ (from UniProt P01215 25-116; P0DN86 21-165) (ligand) | –
18 | – | – | – | 2.05 | 161 | hCG mutant α-P16K / WT-hCGβ (from UniProt P01215 25-116; P0DN86 21-165) (ligand) | stimulation of progesterone production in MA-10 cells, fold more active than WT-hCG [4]: 4 fold; fold more active than WT-hCG in receptor binding activity [6]: 4 fold
19 | – | – | – | 4.6 | 145 | hCG mutant α-R67K / WT-hCGβ (from UniProt P01215 25-116; P0DN86 21-165) (ligand) | –
20 | – | – | – | – | – | hTSH mutant WT α / hTSHβ-I58R+E63R (from UniProt P01215 25-116; P01222 21-132) (ligand) | efficacy of cAMP stimulation in CHO-hTSH cells (Fig. 2g), fold increase [1]: 1.5 fold; potency of cAMP stimulation in CHO-hTSH cells (Fig. 2g), fold over wild type hTSH [1]: 15 fold
21 | 0.37 | 11.8 fold (WT=1) | 6.4 | – | – | hTSH mutant α-P16K+Q20K / WT-hTSHβ (from UniProt P01215 25-116; P01222 21-132) (ligand) | –
22 | 3.52 | 1.9 fold (WT=1) | – | – | – | hTSH mutant α-P16K+F17T / WT-hTSHβ (from UniProt P01215 25-116; P01222 21-132) (ligand) | –
23 | – | – | – | 1.65 | 205 | hCG mutant α-Q13K+P16K+Q20K+E14K / WT-hCGβ (from UniProt P01215 25-116; P0DN86 21-165) (ligand) | –
24 | 0.07 | 95.7 fold (WT=1) | 1.3 | – | – | hTSH mutant α-Q13K+P16K+Q20K+E14K / TSHβ-L69R (from UniProt P01215 25-116; P01222 21-132) (ligand) | efficacy (maximal response) of cAMP stimulation, fold over WT-hTSH [1]: > 1.5 fold
25 | 0.19 | 35.3 fold (WT=1) | 1.8 | – | – | hTSH mutant α-Q13K+P16K+Q20K / TSHβ-L69R (from UniProt P01215 25-116; P01222 21-132) (ligand) | half-maximal stimulation of 3H-thymidine incorporation in FRTL-5 cells, fold lower concentration than WT-hTSH [5]: 27 fold
26 | – | – | 81.3 | – | – | WT-hTSH (wild-type recombinant human thyroid stimulating hormone) (from UniProt P01215 25-116; P01222 21-132) (ligand) | –
27 | – | – | – | 2.79 | 156 | hCG mutant α-T11K / WT-hCGβ (from UniProt P01215 25-116; P0DN86 21-165) (ligand) | –
